Experimental data reported in patent US9462805B2, “Herbicide-resistant proteins, encoding genes, and uses thereof” (Beijing Dabeinong Technology Group Co., Ltd., priority 2012, dated 2016).

Key:
Arabidopsis = test: Effective dose distinguishing sensitive from resistant Arabidopsis; assay type: in vivo
[1] = tested on: corn plants transfected with 24DT02 nucleotide sequence; test: Herbicide-resistance effect test of transgenic corn plants (24DT02; strains S1-S3); assay type: in vivo, maize; settings: for resistance levels against 2,4-D dimethyl ammonium salt and agroxone, compared among the sequences: corn plants transformed with the respective sequence
Description: Herbicide resistance effects tests to 2,4-D dimethyl ammonium salt and agroxone of maize plants containing 24DT02 nucleotide sequence, 24DT02 substituted nucleotide sequence, 24DT02 truncated nucleotide sequence, 24DT02 added nucleotide sequence, control nucleotide sequence respectively and wild type maize plants (stages V3-V4) were performed respectively.
Maize plants containing 24DT02 nucleotide sequence, 24DT02 substituted nucleotide sequence, 24DT02 truncated nucleotide sequence, 24DT02 added nucleotide sequence, control nucleotide sequence respectively and wild type maize plants were taken and spayed with 2,4-D dimethyl ammonium salt (8960 g ae/ha, 16-folds concentration in field), agroxone (8960 g ae/ha, 16-folds concentration in field) and blank solvent (water) respectively. Prop root development was counted 21 days after spaying. Three strains (S1, S2, and S3) of corn plants transfected with 24DT02 nucleotide sequence, two strains (S4 and S5) of corn plants transfected with 24DT02 substituted nucleotide sequence, two strains (S6 and S7) of corn plants transfected with 24DT02 truncated nucleotide sequence, two strains (S8 and S9) of corn plants transfected with 24DT02 added nucleotide sequence, two strains (S10 and S11) of corn plants transfected with control nucleotide sequence and 1 strain of wild type (CK) corn were selected and 10-15 plants from each stain were tested.

[2] = tested on: Arabidopsis T1 plants transformed with 24DT02 nucleotide sequence; test: Herbicide resistance effect test of transgenic Arabidopsis T1 plants (24DT02); assay type: in vivo, Arabidopsis thaliana; settings: for resistance levels to 2,4-D dimethyl ammonium salt and agroxone, compared among the sequences: Arabidopsis T1 plants transformed with the respective sequence
Description: On 7 days after planting (DAP) and 11 DAP respectively, the T1 plants (cotyledon stage and 2-4 leaves stage, respectively) were sprayed with 0.2% of Liberty herbicide solution (200 g ai/L glufosinate-ammonium) using DeVilbiss compressed air nozzle at a spraying volume of 10 ml/disc (703 L/ha) so as to provide effective amount of glufosinate-ammonium (280 g ai/ha) for each application. The survival plants (actively growing plants) were verified 4 to 7 days after the last spraying and transferred into the square pot (7 cm×7 cm) made from vermiculite and horses dung (3-5 plants per pot). The transplanted plants were covered with moisturizing mask for 3-4 days and placed in culture room at 22° C. or directly into the greenhouse as described above. Then the mask was removed and the plants were planted in greenhouse (22±5° C., 50±30% RH, 14 hours of lighting: 10 hours of darkness, minimum […] natural light+complement light) at least one day before testing the ability of 24DT02 to provide the resistance to phenoxy auxin herbicide.
24DT02 gene was used to transform Arabidopsis for the first time. At first, T1 transformants were selected from the background of un-transformed seeds, using glufosinate-ammonium selection scheme. About 40000 T1 seeds were screened among which 195 strains of T1 generation positive transformants (PAT gene) were identified, i.e. the transformation efficiency was about 0.5%. Herbicide resistance effect tests to 2,4-D dimethyl ammonium salt and agroxone of Arabidopsis T1 plants transformed with 24DT02 nucleotide sequence, substituted 24DT02 nucleotide sequence, truncated 24DT02 nucleotide sequence, added 24DT02 nucleotide sequence, control nucleotide sequence respectively and wild-type Arabidopsis plants were performed after 18 days of planting.
Arabidopsis T1 plants transformed with 24DT02 nucleotide sequence, substituted 24DT02 nucleotide sequence, truncated 24DT02 nucleotide sequence, added 24DT02 nucleotide sequence and control nucleotide sequence respectively and wild-type Arabidopsis plants were sprayed with 2,4-D dimethyl ammonium salt (560 g ae/ha, 1-fold concentration in field), agroxone (560 g ae/ha, 1-fold concentration in field) and blank solvent (water). Resistance conditions of the plants were counted 7 days and 14 days after spraying. Plants with growth conditions consistent with blank solvent (water) 7 days after spaying were classified as highly resistant plants; Plants with curly rosette leaves 7 days after spaying were classified as moderately resistant plants; Plants incapable of bolting 14 days after spaying were classified as low-resistant plants and the dead plants 14 days after spaying were classified as non-resistant plants. Because each Arabidopsis T1 plant was an independent transformation event, significant differences of individual T1 responses were expected under a given dose.

Row | Molecule | effective dose to distinguish the sensitive plants from plants with average resistance (Arabidopsis) [g ae/ha] | resistance levels against 2,4-D dimethyl ammonium salt and agroxone, compared among the sequences [1] | herbicide resistance conferred to plants ([1]; transgenic maize plants, 2,4-D dimethyl ammonium salt and agroxone 8960 g ae/ha, Table 2) | resistance levels to 2,4-D dimethyl ammonium salt and agroxone, compared among the sequences [2] | herbicide resistance conferred to plants ([2]; Arabidopsis T1 plants, 2,4-D dimethyl ammonium salt and agroxone 560 g ae/ha, Table 1 and FIG. 4)
1 | O=C(O)COc1ccc(Cl)cc1Cl [2,4-D, 2,4-dichlorophenoxyacetic acid] | 50 | – | – | – | –
2 | 24DT02: herbicide-resistant protein of 298 amino acids, SEQ ID NO: 2, encoded by nucleotide sequence SEQ ID NO: 1 (protein, 24DT02 amino acid sequence) MERHAMSNGKQIVRIEPLPGKTFGAVVTGVRLSELDEDTFSLLYREWLQYALLIFPAQYLTDSQQRDAASKFGCLVEGLEAVEISNLLPTGEVRAAPDDDMMKIIRGNMQWHQDNTYMPLQAKGALFSAKRVPSSGGETGFADMRAAWDALDTETQDRLANLSAYHSLAQSQKNLGEDVKSSDSEYIGYGLDVSTVPRRSLLKIHPETDRKTLAVGRHAFGVTGMAEQESTQFVSDLIDFAVADESRTYHHIWSEGDAILWDNRCLMHRACPWNFSQPRVMLHSRIAGDPSTEAALNS | – | didn't show significant differences | conferred high resistance against herbicides to the transgenic maize plants | didn't show significant differences | conferred herbicide resistance to individual Arabidopsis plants
3 | 24DT02-i: substituted 24DT02 (SEQ ID NO: 3), in which the Met267 was substituted with Leu (protein, 24DT02 substituted nucleotide sequence) MERHAMSNGKQIVRIEPLPGKTFGAVVTGVRLSELDEDTFSLLYREWLQYALLIFPAQYLTDSQQRDAASKFGCLVEGLEAVEISNLLPTGEVRAAPDDDMMKIIRGNMQWHQDNTYMPLQAKGALFSAKRVPSSGGETGFADMRAAWDALDTETQDRLANLSAYHSLAQSQKNLGEDVKSSDSEYIGYGLDVSTVPRRSLLKIHPETDRKTLAVGRHAFGVTGMAEQESTQFVSDLIDFAVADESRTYHHIWSEGDAILWDNRCLLHRACPWNFSQPRVMLHSRIAGDPSTEAALNS | – | didn't show significant differences | – | didn't show significant differences | –
4 | 24DT02-t: truncated 24DT02 (SEQ ID NO: 4), amino acids from 1 to 295 of 24DT02 amino acid sequence (protein, 24DT02 truncated nucleotide sequence) MERHAMSNGKQIVRIEPLPGKTFGAVVTGVRLSELDEDTFSLLYREWLQYALLIFPAQYLTDSQQRDAASKFGCLVEGLEAVEISNLLPTGEVRAAPDDDMMKIIRGNMQWHQDNTYMPLQAKGALFSAKRVPSSGGETGFADMRAAWDALDTETQDRLANLSAYHSLAQSQKNLGEDVKSSDSEYIGYGLDVSTVPRRSLLKIHPETDRKTLAVGRHAFGVTGMAEQESTQFVSDLIDFAVADESRTYHHIWSEGDAILWDNRCLMHRACPWNFSQPRVMLHSRIAGDPSTEAA | – | didn't show significant differences | – | didn't show significant differences | –
5 | 24DT02-a: added 24DT02 (SEQ ID NO: 5), Ala, Leu and Val added after the 298th amino acid (protein, 24DT02 added nucleotide sequence) MERHAMSNGKQIVRIEPLPGKTFGAVVTGVRLSELDEDTFSLLYREWLQYALLIFPAQYLTDSQQRDAASKFGCLVEGLEAVEISNLLPTGEVRAAPDDDMMKIIRGNMQWHQDNTYMPLQAKGALFSAKRVPSSGGETGFADMRAAWDALDTETQDRLANLSAYHSLAQSQKNLGEDVKSSDSEYIGYGLDVSTVPRRSLLKIHPETDRKTLAVGRHAFGVTGMAEQESTQFVSDLIDFAVADESRTYHHIWSEGDAILWDNRCLMHRACPWNFSQPRVMLHSRIAGDPSTEAALNSALV | – | didn't show significant differences | – | didn't show significant differences | –
